Assay: label from the status in PepcDB records

Question: For “MMRYKEEKEVKKEAFRKYLESSGVLDSLTKVLVSLYEQNDKPSSALEFIQQKLGGPSVSDYEKLQAEKSDLQIKYNELLAKHQETLRELNGVKSLHSRNSSKDDADRETLEAEHTTLVTPHH”, which protein production is on record?
Answer: The protein production was “failed”.

Question: Which protein production does the source give for “MLHLKVQFLDDSQKIFVVDQKSSGKALFNLSCSHLNLAEKEYFGLEFCSHSGNNVWLELLKPITKQVKNPKEIVFKFMVK” here?
Answer: The protein production was “failed”.

Question: Which protein production does the source give for “MQSNLLAVLFALASALTIAWGTVVRHRIALRTPKDGSLRSSPLLNALMTPMWWAGMSTAMLAYFLQTVALGFGTLLVVQPVLVLSLMFTLPLSARFNGYRLRRTEIFWATLLTVAVGIMIVLGRPLPGNPHPPLDRWIPVLLVGVAVMGGMWLLAEYVLKKDKALILGLVTGALFGYVAVMSKAAVDLFVHQGITGLILNWEGYGLILTALLGTIVQQYSFNAGELQKSLPAMTIAEPIVAFSLGYLVLGEKFQVVDWEWIAMGIALLVMIVSTIALSRTSTMPAGSKR” here?
Answer: The protein production was “failed”.

Question: Which protein production does the source give for “FQQTQDWVFIIDEKISRITANQSMRAVFDWPEEEFDFSDKLLGVSQKRRSFYRKLMLSLKEGEHWRGEELIVTANKDEYHVIINVTVGFSSVTNALHYLFVLTDIS” here?
Answer: Its protein production is “failed”.

Question: Which protein production does the source give for “MPRITTDTIIADVLRIDRGTIPIFLNNGLHCLGCPSAQGESIEEACALHGIDAQKLVDELNEYLKSKGLLDLEHHHHHH” here?
Answer: The protein production was “not failed”.

Question: Which protein production does the source give for “PVVVAVGAHREAAAVVDTAARLARDTASPLEVVHVRRTAVVEEQAADTETDEQAKAAVTAHLDRLGGMGVTATGQILTGVGDHAAAGRALARHAAEVGARTVAVGRSPRGPLAQFADGSFTSALTHAATCTVVLVDPNAEPR” here?
Answer: Its protein production is “failed”.

Question: Which protein production does the source give for “MANHVSLILPPLSLYIHIPWCVQKCPYCDFNSHTQKGTIPEAEYIQHLLADLSQDLVTYKTAIANRKIHSIFIGGGTPSLFSAEAIAYLLAEIKQRIAFAPKIEITLEANPGTAEAERFICYTEAGINRISMGIQSFEEEKLRKLGRIHDAHEAKQAVYFAKNALISPSRTVGLHSFNLDLMHGLPNQTLEQALADLNTAISLNPPHFSWYQLTIEPNTMFYYRQPTLPDDDELWAIFEQGHQLLTMAGYQQYETSAYAKQGFQCQHNLNYWRFGDYLAIGCGAHGKISYPSGEIYRFSKTKHPKGYMRGDYRDSQQSIQLDDRPFEFFMNRFRLLEPTPKQEFECYTGLDCERVRPTIDWALNKHYISETSTTWQVTQKGKLFLNELLAGFLTLEHHHHHH” here?
Answer: The protein production was “failed”.

Question: Which protein production does the source give for “MQFPSIEDLRARNTMKWTRYGQGVLPLWVAESDFSTCPAVLQAITDAVQREAFGYQPDGSLLSQATAEFYADRYGYQARPEWIFPIPDVVRGLYIAIDHFTPAQSKVIVPTPAYPPFFHLLSATQREGIFIDATGGINLHDVEKGFQAGARSILLCNPYNPLGMVFAPEWLNELCDLAHRYDARVLVDEIHAPLVFDGQHTVAAGVSDTAASVCITITAPSKAWNIAGLKCAQIIFSNPSDAEHWQQLSPVIKDGASTLGLIAAEAAYRYGTDFLNQEVAYLKNNHDFLLHEIPKRIPGAKITPMQATYLMWIDFRDTTIEGSPSEFFIEKAKVAMNDGAWFGEDGTGFCRLNFATSREVLEEAIDRMAKAVSHHT” here?
Answer: Its protein production is “not failed”.

Question: Which protein production does the source give for “MKFGEHLSKSLIRQYSYYYISYDDLKTELEDNLSKNNGQWTQELETDFLESLEIELDKVYTFCKVKHSEVFRRVKEVQEQVQHTVRLLDSNNPPTQLDFEILEEELSDIIADVHDLAKFSRLNYTGFQKIIKKHDKKTGFILKPVFQVRLDSKPFFKENYDELVVKISQLYDIARTSGRPIKGDSSAGGKQQNFVRQTTKYWVHPDNITELKLIILKHLPVLVFNTNKEFEREDSAITSIYFDNENLDLYYGRLRKDEGAEAHRLRWYGGMSTDTIFVERKTHREDWTGEKSVKARFALKERHVNDFLKGKYTVDQVFAKMRKEGKKPMNEIENLEALASEIQYVMLKKKLRPVVRSFYNRTAFQLPGDARVRISLDTELTMVREDNFDGVDRTHKNWRRTDIGVDWPFKQLDDKDICRFPYAVLEVKLQTQLGQEPPEWVRELVGSHLVEPVPKFSKFIHGVATLLNDKVDSIPFWLPQMDVDIRKPPLPTNIEITRPGRSDNEDNDFDEDDEDDAALVAAMTNAPGNSLDIEESVGYGATSAPTSNTNHVVESANAAYYQRKIRNAENPISKKYYEIVAFFDHYFNGDQISKIPKGTTFDTQIRAPPGKTICVPVRVEPKVYFATERTYLSWLSISILLGGVSTTLLTYGSPTAMIGSIGFFITSLAVLIRTVMVYAKRVVNIRLKRAVDYEDKIGPGMVSVFLILSILFSFFCNLVAK” here?
Answer: Its protein production is “failed”.

Question: For “MEERSQLFLEQYLSSVSREVSEKYTSFSADYFCADEYNANVCADLILRGEKRASCSLEYWYSQKGELMPQVGHLQVVTNWDGKPICIIEITSVSKCQYNQVSEDFAASEGEGDKSLAWWQEAHRNFFSRECHELGIEFREDMLLVLEHFKVVYH”, which protein production is on record?
Answer: Its protein production is “not failed”.

Question: With “MKKFAIMGLGTFGVRMLDELIKIGAEVIIIEQNKDLIEMYKSKASSAIVLEEISELSVRKILPSKVDTVIVDFGRKVELSVISTTILKNLGIANIVVRAQSDEHGRLLKTVGATRIIYPDSEAAKRTTPILAADLLLKFMPISKNLALAEVGVEARYVGKSLAESNIRKDMGVNIIARRKKESEDFIFMDDPEYKFEEDDVLLVVASEEHIYNFSGGKISLKNNLKKDGEIKPSIFKNLFSSKKV” as the sequence, how does the protein production read?
Answer: The protein production was “failed”.

Question: For “MGVRLAVRCFVVDGVLIDTGAKSMENEFTSFFQQQDIDQVVITHFHEDHTGCAAFLQRSMGLPIYMNEPMIEYCRQKADYPLYRKIFWGKRDPFAAKPIGATFSSRNATWDVIPTPGHAIDHVVFLNRETGQLFSGDLYCQEKTKVILREEDIPTIIASLQHVLTYDFGDVFCAHAGYLPLEHHHHHH”, which protein production is on record?
Answer: Its protein production is “failed”.

Question: Which protein production does the source give for “MIDKREVLAPNRRSRQREEIVAEEKRYEVYFQPLLSGVEVKKSNEIKIVLPQQEYNRIEQGAKGTLRLQGTRYISFVPNSVAKLEHHHHHH” here?
Answer: Its protein production is “not failed”.

Question: Which protein production does the source give for “MAVSSGTFSTFLCIKTTSFRNPSTPLSSLRFASHPAAKLRLVRAVTSATESSEPTATNKRVPRGIMKPRPVSPEMQDIVELPEIARTQALKRIWAYIKEHDLQDPQNKREILCDEKLKKIFEGRDRVGFLEIAKLIGPHFL” here?
Answer: Its protein production is “failed”.

Question: For “MWEPACKNRTRTLAGLAPLLASIQSPSPPSVVLRLDPSTRTQALCPHPATARGNPMSRIFITGSTDGLGLAAARTLISQGHDVVLHARSRQRAAAIADTSAAALSLVIGDLASAAETRSIADQVNAFGRMDAVIHNAGIYLERSRGETPEGHAKTLAVNVLAPYLLTAWITRPDRLIYLSSGMHRSGASTLDDIDWKRRPWNASQAYSESKLYIATLAALARHWPDALSNAVDPGWVPTKMGGAGAPDDLEMGHLTQTWLATSDEGAAKVSGGYWYHRQRREAAAEVGDVGFQEALVGRLAELTGVRLFAERG”, which protein production is on record?
Answer: Its protein production is “failed”.

Question: Which protein production does the source give for “MGLLFFHNDVTDRFNPFIHQQDVYVQIDRDGRHLSPGGTEYTLDGYNASGKKEEVTFFAGKELRKNAYLKVKAKGKYVETWEEVKFEDMPDSVQSKLKLEHHHHHH” here?
Answer: The protein production was “not failed”.

Question: With “SQNSKTPFPEYFWSWFETYKESSVSERTKLTYKNTFNVLKKHLGGIPIEEMDRRLYRKFIAEFGKDHAKSTVSKFNSLYHACVKDAMYDGDMTKDFIAGTDIVYNRKKTRK” as the sequence, how does the protein production read?
Answer: The protein production was “failed”.

Question: For “MDDEGLPRFAGVVYDQEEGIDALVGDFVEGLLARKLRVGGLLQGREPDAEGVTRTVVRVIGKARRIVISQNLGRHSTACSIDSAAIAEAAVALRQALEERPALIVGNRFGHLELEGAGMSEEMLDILASGTPFLIPVARRFEEGWRRFTGDMGDLLDPRPAALTAWFEALAPVTALEHHHHHH”, which protein production is on record?
Answer: Its protein production is “failed”.

Question: For “MTSVMPFAHLLLALLVVFVWGINFIFVKLSLEEFSPLLLCAVRFLLASVPAVFFIKPPAVPFKIIASYGLIMFALQFALLFIGLRVGMTPGVASLLMQVQVFFSMFFAIIFLGEQPQVGQIIGALIAFIGIGVVALHFDHNVSLMGFLCILAAAASWGIGNLITKKIHSVNLIAVIVWSSFVACLPMFILSLVFEGPESFVTAYEHMTWKGILSVLYIVYISTWVGYGVWNWLISRYPVGMVVPFTLLVPVVGILSSVLILGEPFYLWKLVAGLLVISGLCINLLTTRLFVAKTQQPETA”, which protein production is on record?
Answer: The protein production was “failed”.

Question: For “MLAVLIGQHGEYLLIFLVSPGQFQEGVMTVHDHWQMDASAPELYERYLVPAITSVWADDLLDRIDPAKGECVLDVACGTGVVARRLAERGHVGRLVGIDLNGAMLAVARAKSSDVEWTEGSALDLPFATRSFDVVLCQLGLQFFPDRPQALREMARVLKPSGRLGLSVYSAIEHTPAANAFVQALDGFLGPESSRTKRAEHLTCNADEVGNWVRQAGFDRVGVETVTKQIGFPSALDYVRFQLTATPMAALLTREDDAGRERTIAAIADDVAARLDPSILANGRLTFPQESFVVVASLR”, which protein production is on record?
Answer: Its protein production is “failed”.

Question: Which protein production does the source give for “MPRPDNVPVYTMRQLAAFVAVAETGTISGAAERMHLSQSALSAAVTDLEKALKAQLCVRRRARGVQLTPTGEAVLSRARALLQQAGELQSDASGEGGV” here?
Answer: Its protein production is “failed”.

Question: For “MELTALDKLEIMELAARFEMSLDKEDVENYLATFASDGALQGFWGIAKGKEELRQGFYAMLDTFARGKRHCSSNAIIQGNYDEATMESYLTVVNREDLNRAGSAFVKDQVRKINGKWYLILRQIEVDPSLPLLQQSQQAGANA”, which protein production is on record?
Answer: The protein production was “not failed”.

Question: With “KMMVLYNETSGSSESKEIAERFKKAAEARGEAVILQPSNPDIDPEEMRKNAKENQVGVLVVIGGDGTIHHAVQNFKDTIRDYQIGIIPGGTVNNFARVLSIPLKEEDAFETILAGQTTPVDFGMVNQD” as the sequence, how does the protein production read?
Answer: Its protein production is “not failed”.

Question: With “PGAPSTVRISKNVDGIHLSWEPPTSPSGNILEYSAYLAIRTAQMQDNPSQLVFMRIYCGLKTSCTVTAGQLANAHIDYTSRPAIVFRISAKNEKGYGPATQIRWLQGNSK” as the sequence, how does the protein production read?
Answer: The protein production was “not failed”.

Question: With “MKSWPRPCSWACANPETKGRAYRTMSSSPTISPASDTFAAMTDDHRLAEFIREQASATRVVIQARKRLSGGAIQENWLLDLLIEGGPWAGVRRWVLRSDALSALPASLDREQEFAVLQVVYQAGVKVPRPLWLCRDVRVHGRVFFLMEYVPGSAAGRALSTGAGPQGRAQLATQLGANLARLHQVRPPCATLCFLSVPDSSPALATIDAYRRYLDTLADAYPVLEWGLRWCELHAPRSSTLCLLHRDYRTGNYLASEEGLEAVLDWEFTGWGDPCEDLGWFTARCWRFTRPDLEAGGIGQLEDFLRGYHEVSSLCIERSRLHYWQVMATLRWAVIALQQGQRHLSGEEPSLELALTARLLPELELDILHMTGAEAP” as the sequence, how does the protein production read?
Answer: The protein production was “failed”.

Question: Which protein production does the source give for “MLRVLSVGVAFILLGCQFFNKTTLHLKYKDYPKNSALKTAFTLTPPKIFFNARFVPPFYQKEFKKAITQQIAYFLKDKSAFILNVSGNVFFSFEENPKDLKAIKERLKKTIEPNADPKAVMRFLNLQASLILECVPQTTCPFDTLLIPTAFSVPVYYANRLGDNPSLFSQEDKTYHNALIKALNKAYYSLMEGLEKRLNAIKNAEWL” here?
Answer: Its protein production is “failed”.

Question: For “IFLDSNMSLDVVWHVYSNMMSPEIEQFSNSVPKSPIRELLELEPETAKFGKPEKLADGRRVRVTVDVFCKGTFRGIGRNYRIAKCTAAKCALRQLKKQGLIAKKD”, which protein production is on record?
Answer: The protein production was “failed”.

Question: Which protein production does the source give for “MGHHHHHHSHMDEQSVESIAEVFRCFICMEKLRDARLCPHCSKLCCFSCIRRWLTEQRAQCPHCRAPLQLRELVNCRWAEEVTQQLDTLQLCSLTKHEEN” here?
Answer: Its protein production is “not failed”.

Question: For “MIQALLQRYEKKIERRKLEKRTAFGAFAGRIGLVSNLFLFVSKFMIGLLSGSVSIMADAINSLSDTISSVLTLVGFYIAGKPADKEHPYGHERFEYISGMLVSLVITFIGFEFLTTSVDRILHPESIKVTPILFAVLALSIGIKIWQGLFYKKVSAKIDSQALVASAKDSFNDVYTTLAVLISAFIEGVTGLRIDGYIGFLIAAYIIYSGLQLIREFINELMGMRPSQTEIDEMKNVLSKMETIVGYHDLLIHNYGPSQTFASVHIEIDDRWDLNKAHQTIDAIEAKFKEELDVNLVCHIDPVNLYDPTQQFVHQTIKKIIRSFDASLKVHDIRLVTHGEEPKILFDLVLPTESKLSEFELGVEIQRQVYEKIGRYKVEITFDHTYLLQ”, which protein production is on record?
Answer: Its protein production is “failed”.

From a protein production outcome set (Wang et al. 2014)
